From publication PMC4351760

Target: R276S/M395R GltPh mutant (Pyrococcus horikoshii) (UniProt O59010)
Experiment: crystal structure

stoichiometry N: 3
Substance: R276S/M395R GltPh mutant (from UniProt O59010 1-417) (natural protein)
